Here are results for one substance from US20220152204A1, “PHOTOIMMUNOTHERAPY AND PHARMACEUTICAL AGENT USED THEREFOR” (SHIMADZU CORPORATION, priority 2019, published 2022).

Ends that are not written are not given here.

Data set [1] relates to xenograft model animals implanted with A431. Description: Mouse experiment: fluorescent intensity monitoring of pharmaceutical agent accumulation in A431 xenograft model animals. Format: in vivo. Conditions: A431 xenograft mice, 0.033 μmol, Pearl Imager, monitored up to 180 min. The procedure:
Five xenograft model animals implanted with A431 were treated with 0.033 μmol IF7C-IR700, and the fluorescent intensity of body surface, tumor and liver of the mice was monitored at 10 min intervals for up to 60 min and at 30 min intervals for up to 180 min with a Pearl Imager (LI-COR Bioscience) to check for accumulation of pharmaceutical agent. The fluorescent intensity over the tumor reached a maximum at 60 min, so exposure to therapeutic light was performed 60 min after pharmaceutical agent injection to carry out NIR-PIT with IF7C-IR700. For the PIT, exposure to NIR light was performed under conditions which enable cleavage of the IR700, at a wavelength of 680 nm to 690 nm and a dose of 10 J/cm^2.

In data set [2] the test system is Epidermal cancer cells (A431). Description: Observation under fluorescent microscope of A431 cells before and after 690 nm laser exposure. The format is cell-based. As to conditions: 20 μg added, 10 minutes at 37° C., 690 nm laser at 50 J. The procedure:
Epidermal cancer cells (A431) were placed at 10,000 cells/mL into a 3.5 mm dish and incubated for 1 day. Subsequently, 20 μg of IF7C-IR700 or IR700 was added to the respective dish and incubation was performed for 10 minutes at 37° C.
Exposure to a 690 nm laser was performed at 50 J, and the A431 cells before and after exposure were observed under a fluorescent microscope (IX61 or IX81; Olympus America). […] From this, it can be inferred that IF7C-IR700 is internalized by cells and undergoes a reaction, causing the cells to shrink.

As for “IF7C-IR700: IF7-C peptide (IFLLWQRC, SEQ ID NO: 6) conjugated with IR700 maleimide via the cysteine SH residue (IFLLWQRC(IR700 maleimide))”, the “time at which fluorescent intensity over the tumor reached a maximum” value in data set [1] is given as 60 min. Besides, the “cell shrinkage observed under fluorescent microscope after exposure” value in data set [2] is given as “the cells had shrunk”.
